Experiment [1] deals with cynoLAMP1 presented on the surface of engineered cell lines (Macaca fascicularis, UniProt A0A2K5UUW0). In words: flow cytometry on cells.
The target of experiment [2] is human LAMP-1 extracellular domain (Homo sapiens, UniProt P11279). In words: BLI. In general terms: BLI is a label-free optical method that tracks binding on a fibre tip over time.
In experiment [3] the target is cynomolgus LAMP-1 extracellular domain (Macaca fascicularis, UniProt A0A2K5UUW0). In words: BLI.
Experiment [4] has as its target murine LAMP-1 extracellular domain (Mus musculus, UniProt P11438). In words: BLI.

Sequence of human LAMP-1 extracellular domain (P11279 29-382): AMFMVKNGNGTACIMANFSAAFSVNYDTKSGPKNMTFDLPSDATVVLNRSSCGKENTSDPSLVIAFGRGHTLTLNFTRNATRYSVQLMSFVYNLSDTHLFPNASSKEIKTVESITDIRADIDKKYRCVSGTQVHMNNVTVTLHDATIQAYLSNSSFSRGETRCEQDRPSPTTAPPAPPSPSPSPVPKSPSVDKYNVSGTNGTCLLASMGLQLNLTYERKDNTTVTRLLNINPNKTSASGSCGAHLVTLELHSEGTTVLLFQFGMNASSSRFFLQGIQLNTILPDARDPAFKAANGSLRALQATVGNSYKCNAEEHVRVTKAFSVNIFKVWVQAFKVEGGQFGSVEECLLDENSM
Sequence of murine LAMP-1 extracellular domain (P11438 25-370): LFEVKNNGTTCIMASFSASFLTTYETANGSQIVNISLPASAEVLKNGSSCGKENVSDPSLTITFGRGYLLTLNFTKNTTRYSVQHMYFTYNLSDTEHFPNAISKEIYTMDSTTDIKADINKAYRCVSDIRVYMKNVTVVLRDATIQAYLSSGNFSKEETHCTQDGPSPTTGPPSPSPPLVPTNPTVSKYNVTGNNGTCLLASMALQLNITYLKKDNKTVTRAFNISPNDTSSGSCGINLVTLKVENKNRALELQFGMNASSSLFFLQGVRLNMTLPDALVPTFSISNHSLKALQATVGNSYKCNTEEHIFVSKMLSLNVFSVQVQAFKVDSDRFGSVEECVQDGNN

B1: mAb B (antibody, V domains shown)
VH: QVQLVQSGAEVKKPGSSVKVSCKASGYIFTNYNIHWVKKSPGQGLEWIGAIYPGNGDAPYSQKFQGKATLTADTSTSTTYMELSSLRSEDTAVYYCVRANWDVAFAYWGQGTLVTVSS
VL: DIQMTQSPSSLSASVGDRVTITCKASQDIDRYMAWYQDKPGKAPRLLIHDTSTLQSGVPSRFSGSGSGRDYTLTISNLEPEDFATYYCLQYDNLWTFGGGTKVEIK
Broadly, the Kd is the constant that tells how readily two partners part at equilibrium. For the molecule B1, the values for the binding result in experiment [1], in experiment [3] and in experiment [4] were “no binding”, “no binding (tested: 200 nM)” and “no binding (tested: 200 nM)”, respectively. Further, in experiment [2], binding was put at a Kd of 12 nM.

(Values after publication PMC9980635 (mAbs, 2023).)
